# Assay results: patent US11898183B2, “Programmed microorganisms to attenuate a disease” (priority 2020, dated 2024)
# B1: O-methyltransferase 3 (OMT) (SEQ ID NO: 28) Papaver somniferum (protein, listed as Papaver somniferum)
# chain: MEVVSKIDQENQAKIWKQIFGFAESLVLKCAVQLEIAETLHNNVKPMSLSELASKLPAQPVNEDRLYRILHFLVHMKLFNKDATTQKYSLAPPAKYLLKGWEKSMVPSILSVTDKDFTAPWNHLGDGLTGNCNAFEKALGKGIRVYMRENPEKDQLFNEGMACDTRLFASALVNECKSIFSDGINTLAGVGRGTGTAVKAISKAFPDIKCTIHDLPEVTSKNSKIPRDVFKSVPSADAIFMKSILHEWNDEECIQILKRCKEAIPKGGKVIIADVVIDMDSTHPYSKSRLAMDLAMMLHTGGKERTEEDWKKLIDAAGFASCKITKLSALQSVIEAYPH
# B2: Caffeoyl CoA O-methyltransferase (CCoAOMT) (SEQ ID NO: 18) Chamaecyparis formosensis (protein)
# chain: MATVEATKDSTQQVSRHQEVGHKSLLQSDALYQYILETSVYPREPEPMRELREITAKHPWNLMTTSADEGQFLHLLLKLINAKNTMEIGVYTGYSLLSTALALPDDGKILAMDINRENYELGLPVIQKAGVAHKIDFREGPALPVLDQMLENKEMHGSFDFIFVDADKDNYLNYHKRLIDLVKIGGVIGYDNTLWNGSVVAPPDAPMRKYVRYYRDFVIELNKALAADPRIEISQIPVGDGITLCRRII
# modifications: Depicts the amino acid sequence of Caffeoyl CoA O-methyltransferase (CCoAOMT) of Chamaecyparis formosensis
# B3: CYP719 (SEQ ID NO: 26) Cinnamomum micranthum (protein)
# chain: MEAIWTAVAIGIAAAVLMAFRGRQRQRLSRKPTQWPPGPTRLPLIGNMHQILLKGGDPFHVAINKLAQVYGPLMTVWFGTRQPTIIVSDHNLVWEVLVSKSADYAAREIPITLKPSLADFRTIVSSNAGPLWHSLRRGLQNGAIGPHSLSLQAPFQESDMAQMINNMIKEANLNGGVVKPFPHIRRAIIKLLARICFGCDFSDEEFDATMDFMVEEALRYSDDSRILDTFPPARFLPSVKRAVMQMEKVKLRLMECIGRPLDSPLPPTCYAHFLLSQSFPREVAIFSIFELFLLGVDSTGSTTMWGLGLLMQNQEAQQKLYQEIREHASCNEKGVVKVEELGKLEYLQAVAKETMRMKPIAPLAVPHQAARDTTLDGLHVAEGTTVLANLYALHYDPKVWDEPERFKPERFLESSKEFLGKRGQYSFLPFGAGMRACAGMEVGKLQLPFAICNLVNAFNWSNVVEKEAPKLIEGFSFILSMKTPLEARIVPRGI
# modifications: Depicts the amino acid sequence of CYP719 of Cinnamomum micranthum
# B4: Bifunctional pinoresinol-lariciresinol reductase (DIRPLR) (SEQ ID NO: 20) Linum usitatissimum (protein, listed as Linum usitatissimum)
# chain: MGRCRVLVVGGTGYIGKRIVKASIEHGHDTYVLKRPETGLDIEKFQLLLSFKKQGAHLVEASFSDHESLVRAVKLVDVVICTVSGAHSRSLLLQLKLVEAIKEAGNVKRFIPSEFGMDPARMGDALEPGRETFDLKMVVRKAIEDANIPHTYISANCFGGYFVGNLSQLGPLTPPSDKVTIYGDGNVKVVYMDEDDVATYTIMTIEDDRTLNKTMYFRPPENVITHRQLVETWEKLSGNQLQKTELSSQDFLALMEGKDVAEQIVIGHLYHIYYEGCLTNFDIDADQDQVEASSLYPEVEYTRMKDYLMIYL
# B5: Secoisolariciresinol dehydrogenase (SDH) (SEQ ID NO: 22) Juglans regia (protein, listed as Juglans regia)
# chain: MNGTSSLLAPIAKRLAGKVALITGGASGIGESTARLFAEQGAKVIIADVQDELGFSVSQDKSINGAISYIHCDVTSESDVQNAVNTAVSKHGKLDIMFNTAGCTGQNKASILDHEQKDYKTVFDVNVLGSFLGAKHAAKVMIPVKRGTILFTASCVTESHGLASHSYTASKHAVVGLTKNLCVELGQYGIRVNCISPYGAATPLFLKGMGIDKKEKAEEILSSAANLKGPVLEAGDLAEAALFLASEESKYVSVLNLVVDGGYSATNVAFTETIQKFFT
# B6: CYP719 (SEQ ID NO: 24) Papaver somniferum (protein, listed as Papaver somniferum)
# chain: MIMSNLWILTLISTILAVFAAVLIIFRRRISASTTEWPVGPKTLPIIGNLHILGGTALHVVLHKLAEVYGSVMTIWIGSWKPVIIVSDFDRAWEVLVNKSSDYSAREMPEITKIGTANWRTISSSDSGPFWATLRKGLQSVALSPQHLASQTAHQERDIIKLIKNLKDEAASGMVKPLDHLKKATVRLISRLIYGQDFDDDKYVEDMHDVIEFLIRISGYAQLAEVFYYAKYLPGHKRAVTGAEEAKRRVIALVRPFLQSNPATNTYLHFLKSQLYPEEVIIFAIFEAYLLGVDSTSSTTAWALAFLIREPSVQEKLYQELKNFTANNNRTMLKVEDVNKLPYLQAVVKETMRMKPIAPLAIPHKACKDTSLMGKKVDKGTKVMVNIHALHHTEKVWKEPYKFIPERFLQKHDKAMEQSLLPFSAGMRICAGMELGKLQFSFSLANLVNAFKWSCVSDGVLPDMSDLLGFVLFMKTPLEARIVPRL
# B7: CYP719 Coptis japonica (protein, UniProt Q948Y1 1-491, looked up)
# (S)-canadine synthase: MEMNPLLVCATVAIVFATTTIIRILFSSSSLPQMKWPSGPRKLPIIGNLHQLGDDVLHVALAKLAKVHGSVMTIWIGSWRPVIVISDIEKAWEVLVNKSADYGARDMPEITKIASASWHTISTSDAGSFWQNVRKGLQSGAMGPLNVAAQNQYQERDMKRLIKAMSDEAANNNGIVKPLDHIKKNTVRLLTRLIFGQAFDDNKFIESMHYEIEDIIRISGYARLAEAFYYAKYLPSHKKAEREAFLVKCRVEELVRPLLSSKPPTNSYLYFLLSQNFEEEVIIFCIFELYLLGVDSTSSTTTWALAYLIREQGAQEKLYQDIRMTLGDVDLVKIEDVNKLKYLQGVVKETMRMKPIAPLAIPHKTAKETTLMGTKVAKGTRIMVNLYALHHNQNIWPDPYKFMPERFLEGETGTAYNKAMEQSFLPFSAGMRICAGMDLGKLQFAFALANLVNAFKWSCVEEGKLPDMGEELSFVLLMKTPLEARIAGRNV
# B8: Caffeoyl CoA O-methyltransferase (CCoAOMT) (SEQ ID NO: 16) Eleocharis dulcis (protein)
# chain: MSTTTTTQTKTETQSQTGAQNGAEQQTRHSEVGHKSLLQSDALYQYILETSVYPREPECMKELRDITAKHPWNLMTTSADEGQFLNLLLKLIGAKKTMEIGVYTGYSLLATALAIPEDGTILAMDINRENYELGLPVIEKAGVAHKIDFREGPALPVLDQLIEDPANLGSFDFIFVDADKDNYLNYHKRLIELVKVGGVIGYDNTLWNGSVVLPADAPMRKYIRYYRDFVLELNKALAADPRIEISQLPVGDGITLCRRVK
# modifications: Depicts the amino acid sequence of enzyme Caffeoyl CoA O-methyltransferase (CCoAOMT)
# B9: O-methyltransferase 3 (OMT) (SEQ ID NO: 30) Sinopodophyllum hexandrum (protein)
# chain: MEMAPTMDLEIRNGNGYGDSGEELLAAQAHIYNHIFNFISSMALKCAVELNIPEILHNHQPKAVTLSELVQALQIPQAKSACLYRLLRILVHSGFFAITKIQSEGDEEGYLPTLSSKLLLKNHPMSMSPCLLGLVNPTMVAPMHFFSDWFKRSDDMTPFEATHGASLWKYFGETPHMAEIFNEAMGCETRLAMSVVLKECKGKLEGISSLVDVGGGTGNVGRAIAEAFPNVKCTVLDLPQVVGNLKGSNNLEFVSGDMFQFIPPADVVFLKWILHDWNDEECIKILKRCKEAIPSKEEGGKLIIIDMVVNDHNKGSYESTETQLFYDLTLMALLTGTERTETEWKKLFVAAGFTSYIISPVLGLKSIIEVFP
# modifications: Depcits amino acid sequence of O-methyltransferase 3 (OMT) of Sinopodophyllum hexandrum
# B10: CYP71 (SEQ ID NO: 32) Cinnamomum micranthum (protein)
# chain: MALLLSLLFFASALIFLLKLNGQRANKTDVPPSPPKLPLIGNLHQLGTLPHRSLRSLAGKYGPLMLLYLGRIPTLIVSSEEMAEQIMKTHDLIFASRPSITAAKELLYGCTDLAFASYGEYWRQVRKMCVLELLSIKRVNSFRSIMEEEVGLMIERISQSSSTGAAVNLAELFLSLTGGTIARAALGKKYEGEAEEGRNKYADLVKELHALLGAFSVGDYFPSLAWVDVVTGLHGKLKRNSRELDRFLDQVIEHHLMRPLDGCDVGEHTDLVDVMLQVQKDSNRDIHLTRDNIKAIILDMFSAGTDTTALTLEWVMAELAKHPNVMKKAQGEVRRVVDVKANISEEHLCQLNYMKSIIKETLRLHPPAPLLVPRESTTNVKIQNFHIPPKTRVFINAYAIGRDPTSWENPEEFLPERFANNSVDFKGQDFQFIPFGAGRRGCPGLSFAITSLELALANLLYWFDWELPQGVTEEDLDMSEALGITVHKKLPLYLVPKNHFS
# modifications: Depicts the amino sequence of CYP71 of Cinnamomum micranthum
# Tested on: pathway specific substrates
# Test: Enzyme functionality of pathway enzyme homologs and fusion constructs in lysed E. coli cell extracts, product by HPLC
# Assay type: biochemical, E. coli BL21
# Conditions: recombinant E. coli BL21 clone, lysed cell extract
# Procedure, shortened: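 Enzymes and fusion constructs were expressed in E. coli BL21 (pET28, T7 promoter) with 0.1 mM IPTG at 30 °C for ~20 h in M9 medium. Cleared freeze-thaw lysates were incubated with pathway-specific substrates. Products were quantified by HPLC relative to empty-plasmid lysates.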
molecule,measurement,setting,value
B1,Enzyme activity in terms of product formation (in %),substrate tested: Pluviatolide,88%
B2,Enzyme activity in terms of product formation (in %),substrate tested: Caffeoyl coA,95%
B3,Enzyme activity in terms of product formation (in %),substrate tested: Matairesinol,97%
B4,Enzyme activity in terms of product formation (in %),substrate tested: Coniferyl alcohol,98%
B5,Enzyme activity in terms of product formation (in %),substrate tested: Secoisolariciresinol,99%
B6,Enzyme activity in terms of product formation (in %),substrate tested: Matairesinol,76%
B7,Enzyme activity in terms of product formation (in %),substrate tested: Matairesinol,0%
B8,Enzyme activity in terms of product formation (in %),substrate tested: Caffeoyl coA,61%
B9,Enzyme activity in terms of product formation (in %),substrate tested: Pluviatolide,99%
B10,Enzyme activity in terms of product formation (in %),substrate tested: Bursehernin,94%
